B1: NEK8 (parent)
chain: VTIKHVACGDFFTACLTDRGIIMT

Variants of: B1
Experiment: protein stability index of a GFP-peptide fusion (GPS, HEK-293T) (PSI 1-6); higher = more stable
Conditions: c terminus: a fixed tail appended
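Note: lentivirally expressed fusions sorted by FACS into six bins by GFP to DsRed ratio, PSI derived from sequencing read proportions per bin multiplied by bin number.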

For NTIKHVACGDFFTACLTDRGIIMT, which protein stability index is on record?
Its protein stability index is 2.51.

Which protein stability index does the source give for QTIKHVACGDFFTACLTDRGIIMT here?
Its protein stability index is 1.59.

Which protein stability index does the source give for FTIKHVACGDFFTACLTDRGIIMT here?
The protein stability index was 1.99.

For TTIKHVACGDFFTACLTDRGIIMT, which protein stability index is on record?
Its protein stability index is 1.54.

With PTIKHVACGDFFTACLTDRGIIMT as the variant, how does the protein stability index read?
Its protein stability index is 1.33.

For ETIKHVACGDFFTACLTDRGIIMT, which protein stability index is on record?
The protein stability index was 1.45.

For GTIKHVACGDFFTACLTDRGIIMT, which protein stability index is on record?
Its protein stability index is 3.39.

With ATIKHVACGDFFTACLTDRGIIMT as the variant, how does the protein stability index read?
The protein stability index was 2.57.

For RTIKHVACGDFFTACLTDRGIIMT, which protein stability index is on record?
Its protein stability index is 2.44.

Which protein stability index does the source give for MTIKHVACGDFFTACLTDRGIIMT here?
Its protein stability index is 3.97.

With STIKHVACGDFFTACLTDRGIIMT as the variant, how does the protein stability index read?
The protein stability index was 3.58.

Which protein stability index does the source give for WTIKHVACGDFFTACLTDRGIIMT here?
The protein stability index was 4.31.

For ITIKHVACGDFFTACLTDRGIIMT, which protein stability index is on record?
The protein stability index was 2.71.

With HTIKHVACGDFFTACLTDRGIIMT as the variant, how does the protein stability index read?
The protein stability index was 2.87.

For YTIKHVACGDFFTACLTDRGIIMT, which protein stability index is on record?
Its protein stability index is 3.81.

For CTIKHVACGDFFTACLTDRGIIMT, which protein stability index is on record?
Its protein stability index is 2.23.

With KTIKHVACGDFFTACLTDRGIIMT as the variant, how does the protein stability index read?
Its protein stability index is 1.91.

For VTIKHVYCGDFFTACLTDRGIIMT, which protein stability index is on record?
Its protein stability index is 3.2.

With VTIKHVKCGDFFTACLTDRGIIMT as the variant, how does the protein stability index read?
The protein stability index was 3.25.

With VTIKHVICGDFFTACLTDRGIIMT as the variant, how does the protein stability index read?
Its protein stability index is 2.61.

Which protein stability index does the source give for VTIKHVECGDFFTACLTDRGIIMT here?
Its protein stability index is 2.69.

For VTIKHVLCGDFFTACLTDRGIIMT, which protein stability index is on record?
The protein stability index was 2.33.

For VTIKHVQCGDFFTACLTDRGIIMT, which protein stability index is on record?
Its protein stability index is 3.77.

For VTIKHVCCGDFFTACLTDRGIIMT, which protein stability index is on record?
Its protein stability index is 1.98.

With VTIKHVTCGDFFTACLTDRGIIMT as the variant, how does the protein stability index read?
Its protein stability index is 2.88.

For VTIKHVPCGDFFTACLTDRGIIMT, which protein stability index is on record?
The protein stability index was 1.72.

Which protein stability index does the source give for VTIKHVSCGDFFTACLTDRGIIMT here?
The protein stability index was 1.57.

With VTIKHVDCGDFFTACLTDRGIIMT as the variant, how does the protein stability index read?
The protein stability index was 2.43.

With VTIKHVMCGDFFTACLTDRGIIMT as the variant, how does the protein stability index read?
The protein stability index was 2.95.

With VTIKHFACGDFFTACLTDRGIIMT as the variant, how does the protein stability index read?
The protein stability index was 2.71.

With VTIKHYACGDFFTACLTDRGIIMT as the variant, how does the protein stability index read?
Its protein stability index is 1.72.

With VTIKHEACGDFFTACLTDRGIIMT as the variant, how does the protein stability index read?
Its protein stability index is 3.14.

Which protein stability index does the source give for VTIKHIACGDFFTACLTDRGIIMT here?
Its protein stability index is 3.76.

With VTIKHAACGDFFTACLTDRGIIMT as the variant, how does the protein stability index read?
Its protein stability index is 2.86.

For VTIKHDACGDFFTACLTDRGIIMT, which protein stability index is on record?
Its protein stability index is 1.35.

With VTIKHLACGDFFTACLTDRGIIMT as the variant, how does the protein stability index read?
Its protein stability index is 2.85.

For VTIKHHACGDFFTACLTDRGIIMT, which protein stability index is on record?
Its protein stability index is 2.85.

With VTIKHTACGDFFTACLTDRGIIMT as the variant, how does the protein stability index read?
The protein stability index was 2.61.

For VTIKHRACGDFFTACLTDRGIIMT, which protein stability index is on record?
The protein stability index was 3.07.

Which protein stability index does the source give for VTIKHSACGDFFTACLTDRGIIMT here?
Its protein stability index is 2.55.

With VTIKHNACGDFFTACLTDRGIIMT as the variant, how does the protein stability index read?
Its protein stability index is 3.92.

For VTIKHPACGDFFTACLTDRGIIMT, which protein stability index is on record?
The protein stability index was 4.25.

Which protein stability index does the source give for VTIKHWACGDFFTACLTDRGIIMT here?
The protein stability index was 4.09.

Which protein stability index does the source give for VTIKHGACGDFFTACLTDRGIIMT here?
Its protein stability index is 2.57.

For VTIKHKACGDFFTACLTDRGIIMT, which protein stability index is on record?
The protein stability index was 2.63.

Which protein stability index does the source give for VTINHVACGDFFTACLTDRGIIMT here?
Its protein stability index is 2.03.

With VTIPHVACGDFFTACLTDRGIIMT as the variant, how does the protein stability index read?
The protein stability index was 2.13.

Which protein stability index does the source give for VTIHHVACGDFFTACLTDRGIIMT here?
Its protein stability index is 2.81.

For VTICHVACGDFFTACLTDRGIIMT, which protein stability index is on record?
The protein stability index was 3.59.

For VTITHVACGDFFTACLTDRGIIMT, which protein stability index is on record?
Its protein stability index is 2.17.

With VTIYHVACGDFFTACLTDRGIIMT as the variant, how does the protein stability index read?
Its protein stability index is 2.75.

For VTIEHVACGDFFTACLTDRGIIMT, which protein stability index is on record?
Its protein stability index is 1.58.

With VTIRHVACGDFFTACLTDRGIIMT as the variant, how does the protein stability index read?
Its protein stability index is 2.47.

Which protein stability index does the source give for VTISHVACGDFFTACLTDRGIIMT here?
Its protein stability index is 2.57.

Which protein stability index does the source give for VTILHVACGDFFTACLTDRGIIMT here?
The protein stability index was 3.2.

With VTIMHVACGDFFTACLTDRGIIMT as the variant, how does the protein stability index read?
The protein stability index was 1.33.

Which protein stability index does the source give for VTIWHVACGDFFTACLTDRGIIMT here?
Its protein stability index is 3.87.

For VTIAHVACGDFFTACLTDRGIIMT, which protein stability index is on record?
The protein stability index was 4.56.

Which protein stability index does the source give for VTIDHVACGDFFTACLTDRGIIMT here?
Its protein stability index is 2.87.

For VTIGHVACGDFFTACLTDRGIIMT, which protein stability index is on record?
The protein stability index was 3.43.

Which protein stability index does the source give for VTIIHVACGDFFTACLTDRGIIMT here?
The protein stability index was 2.27.

For VTIVHVACGDFFTACLTDRGIIMT, which protein stability index is on record?
Its protein stability index is 1.74.

Which protein stability index does the source give for VTIFHVACGDFFTACLTDRGIIMT here?
The protein stability index was 2.88.

With VTIKHVACHDFFTACLTDRGIIMT as the variant, how does the protein stability index read?
The protein stability index was 2.74.

With VTIKHVACTDFFTACLTDRGIIMT as the variant, how does the protein stability index read?
Its protein stability index is 3.5.

Which protein stability index does the source give for VTIKHVACADFFTACLTDRGIIMT here?
The protein stability index was 2.32.

For VTIKHVACCDFFTACLTDRGIIMT, which protein stability index is on record?
The protein stability index was 1.88.

For VTIKHVACIDFFTACLTDRGIIMT, which protein stability index is on record?
The protein stability index was 3.19.

For VTIKHVACMDFFTACLTDRGIIMT, which protein stability index is on record?
Its protein stability index is 3.93.

Which protein stability index does the source give for VTIKHVACKDFFTACLTDRGIIMT here?
The protein stability index was 2.98.

For VTIKHVACRDFFTACLTDRGIIMT, which protein stability index is on record?
Its protein stability index is 3.64.

Which protein stability index does the source give for VTIKHVACYDFFTACLTDRGIIMT here?
The protein stability index was 3.79.

For VTIKHVACEDFFTACLTDRGIIMT, which protein stability index is on record?
The protein stability index was 2.66.

With VTIKHVACSDFFTACLTDRGIIMT as the variant, how does the protein stability index read?
Its protein stability index is 3.21.

Which protein stability index does the source give for VTIKHVACDDFFTACLTDRGIIMT here?
Its protein stability index is 3.

Which protein stability index does the source give for VTIKHVACFDFFTACLTDRGIIMT here?
The protein stability index was 2.38.

For VTIKHVACWDFFTACLTDRGIIMT, which protein stability index is on record?
The protein stability index was 3.39.

Which protein stability index does the source give for VTIKHVACGDAFTACLTDRGIIMT here?
Its protein stability index is 2.49.

For VTIKHVACGDEFTACLTDRGIIMT, which protein stability index is on record?
The protein stability index was 2.9.

For VTIKHVACGDDFTACLTDRGIIMT, which protein stability index is on record?
The protein stability index was 1.46.

Which protein stability index does the source give for VTIKHVACGDHFTACLTDRGIIMT here?
Its protein stability index is 1.88.

With VTIKHVACGDGFTACLTDRGIIMT as the variant, how does the protein stability index read?
The protein stability index was 1.8.

With VTIKHVACGDCFTACLTDRGIIMT as the variant, how does the protein stability index read?
The protein stability index was 1.91.

With VTIKIVACGDFFTACLTDRGIIMT as the variant, how does the protein stability index read?
Its protein stability index is 4.16.

Which protein stability index does the source give for VTIKKVACGDFFTACLTDRGIIMT here?
Its protein stability index is 1.19.

With VTIKWVACGDFFTACLTDRGIIMT as the variant, how does the protein stability index read?
Its protein stability index is 2.46.

For VTIKFVACGDFFTACLTDRGIIMT, which protein stability index is on record?
Its protein stability index is 2.88.

With VTIKMVACGDFFTACLTDRGIIMT as the variant, how does the protein stability index read?
Its protein stability index is 5.14.

For VTIKLVACGDFFTACLTDRGIIMT, which protein stability index is on record?
Its protein stability index is 1.99.

With VTIKTVACGDFFTACLTDRGIIMT as the variant, how does the protein stability index read?
Its protein stability index is 3.55.

For VTIKPVACGDFFTACLTDRGIIMT, which protein stability index is on record?
Its protein stability index is 3.52.

Which protein stability index does the source give for VTIKDVACGDFFTACLTDRGIIMT here?
Its protein stability index is 3.02.

Which protein stability index does the source give for VTIKSVACGDFFTACLTDRGIIMT here?
The protein stability index was 3.48.

With VTIKRVACGDFFTACLTDRGIIMT as the variant, how does the protein stability index read?
The protein stability index was 3.65.
